T1: CD79b on malignant B cell lines (BJAB, Daudi, SUDHL-4, Nalm-6) (UniProt P40259 29-229, limits assumed)
T1 construct: whole, on cells; also called malignant B cells
T1 sequence (looked up): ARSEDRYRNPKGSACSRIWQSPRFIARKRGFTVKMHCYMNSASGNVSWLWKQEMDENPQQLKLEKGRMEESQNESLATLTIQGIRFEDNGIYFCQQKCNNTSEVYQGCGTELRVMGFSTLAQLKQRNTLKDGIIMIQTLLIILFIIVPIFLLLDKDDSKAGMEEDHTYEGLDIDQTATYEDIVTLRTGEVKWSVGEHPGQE

T2: antigen on malignant B cell lines (BJAB, Daudi, SUDHL-4, Nalm-6) bound by Mosunetuzumab, not named in the …
T2 chain: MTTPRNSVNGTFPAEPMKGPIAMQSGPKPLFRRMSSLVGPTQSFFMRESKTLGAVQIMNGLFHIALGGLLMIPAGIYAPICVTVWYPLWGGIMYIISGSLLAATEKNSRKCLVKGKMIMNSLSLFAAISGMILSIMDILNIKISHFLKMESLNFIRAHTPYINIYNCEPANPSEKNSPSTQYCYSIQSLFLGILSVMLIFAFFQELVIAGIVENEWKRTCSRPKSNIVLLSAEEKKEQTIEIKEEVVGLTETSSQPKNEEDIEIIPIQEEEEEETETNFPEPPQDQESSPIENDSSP


Tests used:
[1] = molecular target: T1, CD79b on malignant B cell lines (BJAB, …); test: flow cytometry (MFI of PE) on BJAB cells
Procedure: (§1) To evaluated the affinities of chCD79b×msnCD3 antibodies to malignant B cell lines. BJAB, Daudi, SUDHL-4 and Nalm-6 cells were purchased from ATCC. For each different cell line, 5×10⁴ cells were mixed with serially diluted antibodies Pola/msnCD3, 22D10/msnCD3, 44G2/msnCD3, 48H10/msnCD3 and 57B9/msnCD3, Mosunetuzumab, and negative control Human IgG Isotype Control (Invitrogen Catalog #02-7102) and incubated on ice for 30 minutes. After incubation, cells were washed twice and detected with an anti-human IgG PE secondary antibody (ebioscience. Cat: 12-4998-82). For analysis, the mean fluorescence intensity (MFI of PE) of each antibody was determined and plotted using GraphPad prism software (version 10.10.1; GraphPad Software Inc).

[2] = molecular target: T1, CD79b on malignant B cell lines (BJAB, …); test: flow cytometry (MFI of PE) on SUDHL-4 cells
Procedure: as §1

[3] = molecular target: CD3 on Jurkat-Lucia NFAT reporter T lymphocytes (UniProt P07766 23-207); test: cell-based or functional assay
[4] = molecular target: T1, CD79b on malignant B cell lines (BJAB, …); test: flow cytometry (MFI of PE) on Daudi cells
Procedure: as §1

[5] = molecular target: T1, CD79b on malignant B cell lines (BJAB, …); test: flow cytometry (MFI of PE) on Nalm-6 cells
Procedure: as §1

[6] = molecular target: T2, antigen on malignant B cell lines …; test: flow cytometry (MFI of PE) on BJAB cells
Procedure: as §1

[7] = molecular target: T2, antigen on malignant B cell lines …; test: flow cytometry (MFI of PE) on SUDHL-4 cells
Procedure: as §1

[8] = molecular target: T2, antigen on malignant B cell lines …; test: flow cytometry (MFI of PE) on Daudi cells
Procedure: as §1

Chain of CD3 on Jurkat-Lucia NFAT reporter T lymphocytes (P07766 23-207): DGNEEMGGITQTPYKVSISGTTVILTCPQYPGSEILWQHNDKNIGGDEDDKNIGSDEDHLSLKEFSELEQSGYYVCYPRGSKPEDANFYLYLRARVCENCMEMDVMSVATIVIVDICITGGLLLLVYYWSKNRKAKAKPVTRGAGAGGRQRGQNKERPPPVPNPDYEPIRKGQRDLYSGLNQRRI

Binder | EC50 [1] [nM] | EC50 [2] [nM] | T cell activation effect, NFAT-Luc reporter, EC50 nM [3] [nM] | EC50 [4] [nM] | EC50 [5] [nM] | EC50 [6] [nM] | EC50 [7] [nM] | EC50 [8] [nM]
Pola/msnCD3 (bispecific antibody, human IgG1, kappa, N297G, also called CD79b/CD3 bispecific antibody; chCD79b×msnCD3) light: DIQLTQSPSSLSASVGDRVTITCKASQSVDYEGDSFLNWYQQKPGKAPKLLIYAASNLESGVPSRFSGSGSGTDFTLTISSLQPEDFATYYCQQSNEDPLTFGQGTKVEIKRTVAAPSVFIFPPSDEQLKSGTASVVCLLNNFYPREAKVQWKVDNALQSGNSQESVTEQDSKDSTYSLSSTLTLSKADYEKHKVYACEVTHQGLSSPVTKSFNRGEC heavy: EVQLVESGGGLVQPGGSLRLSCAASGYTFSSYWIEWVRQAPGKGLEWIGEILPGGGDTNYNEIFKGRATFSADTSKNTAYLQMNSLRAEDTAVYYCTRRVPIRLDYWGQGTLVTVSSASTKGPSVFPLAPSSKSTSGGTAALGCLVKDYFPEPVTVSWSSGALTSGVHTFPAVLQSSGLYSLSSVVTVPSSSLGTQTYICNVNHKPSNTKVDKKVEPKSCDKTHTCPPCPAPELLGGPSVFLFPPKPKDTLMISRTPEVTCVVVDVSHEDPEVKFNWYVDGVEVHNAKTKPREEQYGSTYRVVSVLTVLHQDWLNGKEYKCKVSNKALPAPIEKTISKAKGQPREPQVYTLPPSRDELTKNQVSLSCAVKGFYPSDIAVEWESNGQPENNYKTTPPVLDSDGSFFLVSKLTVDKSRWQQGNVFSCSVMHEALHNRFTQKSLSLSPGK not shown | 18.9 | 15.5 | ~15.4 | 4.04 | – | – | – | –
22D10/msnCD3 (bispecific antibody, human IgG1, kappa, N297G, also called CD79b/CD3 bispecific antibody; chCD79b×msnCD3) light: ALVMTQTPSSVSAAVGGTVTINCRASEDIERYLAWYQQKPGQRPKLLIYGASTLASGVPSRFKGSGSGTEYTLTISGVQPDDAATYYCHQGDSSRNVVNVFGGGTEVVVKRTVAAPSVFIFPPSDEQLKSGTASVVCLLNNFYPREAKVQWKVDNALQSGNSQESVTEQDSKDSTYSLSSTLTLSKADYEKHKVYACEVTHQGLSSPVTKSFNRGEC heavy: QSVEESGGRLVTPGTPLTLTCTASGFTINDYHMNWVRQAPGKGLEWIGIISSNGDTYYASWAKGRFTISRTSTTVDLKMTSLTTEDTATYFCARDDRDRSYAFDPWGPGTLVTVSSASTKGPSVFPLAPSSKSTSGGTAALGCLVKDYFPEPVTVSWSSGALTSGVHTFPAVLQSSGLYSLSSVVTVPSSSLGTQTYICNVNHKPSNTKVDKKVEPKSCDKTHTCPPCPAPELLGGPSVFLFPPKPKDTLMISRTPEVTCVVVDVSHEDPEVKFNWYVDGVEVHNAKTKPREEQYGSTYRVVSVLTVLHQDWLNGKEYKCKVSNKALPAPIEKTISKAKGQPREPQVYTLPPSRDELTKNQVSLSCAVKGFYPSDIAVEWESNGQPENNYKTTPPVLDSDGSFFLVSKLTVDKSRWQQGNVFSCSVMHEALHNRFTQKSLSLSPGK not shown | 1.24 | – | 866 | 17.1 | – | – | – | –
44G2/msnCD3 (bispecific antibody, human IgG1, kappa, N297G, also called CD79b/CD3 bispecific antibody; chCD79b×msnCD3) light: DLVMTQTPSSVSAAVGGTVSINCRASEDIENYLAWYQQKPGQPPKLLIYRASTLSSGVSSRFSGSGSGTEFTLTISGVQPDDAATYYCQQGYRNSNVDNPFGGGTEMVVKRTVAAPSVFIFPPSDEQLKSGTASVVCLLNNFYPREAKVQWKVDNALQSGNSQESVTEQDSKDSTYSLSSTLTLSKADYEKHKVYACEVTHQGLSSPVTKSFNRGEC heavy: QSVRETGGGLVQPGGSLKLSCKASGFTINIDYWISWVRQAPGKGLEWIGIIDPGDGTTYFAIWVNGRFTISFDNTQNTVDLQMNSLTAADTATYFCVREFSASAYQYDLWGPGTLVTVSSASTKGPSVFPLAPSSKSTSGGTAALGCLVKDYFPEPVTVSWSSGALTSGVHTFPAVLQSSGLYSLSSVVTVPSSSLGTQTYICNVNHKPSNTKVDKKVEPKSCDKTHTCPPCPAPELLGGPSVFLFPPKPKDTLMISRTPEVTCVVVDVSHEDPEVKFNWYVDGVEVHNAKTKPREEQYGSTYRVVSVLTVLHQDWLNGKEYKCKVSNKALPAPIEKTISKAKGQPREPQVYTLPPSRDELTKNQVSLSCAVKGFYPSDIAVEWESNGQPENNYKTTPPVLDSDGSFFLVSKLTVDKSRWQQGNVFSCSVMHEALHNRFTQKSLSLSPGK not shown | 4.33 | 1.73 | 1.12 | 0.614 | 9.53 | – | – | –
48H10/msnCD3 (bispecific antibody, human IgG1, kappa, N297G, also called CD79b/CD3 bispecific antibody; chCD79b×msnCD3) light: ALVMTQTPSSVSAAVGGTVSINCQASEDIESYLTWYQQKPGQPPKLLMYRASTLSSGVSSRFSASGSGTEFTLTISGVQPDDAATYYCQQGYRNKDVDNPFGGGTEVVVKRTVAAPSVFIFPPSDEQLKSGTASVVCLLNNFYPREAKVQWKVDNALQSGNSQESVTEQDSKDSTYSLSSTLTLSKADYEKHKVYACEVTHQGLSSPVTKSFNRGEC heavy: QSVKETGGGLVQPGGSLTLSCKASGFTINIDYWISWVRQAPGKGLEWIGIIDPGDGTTYFAIWVNGRFTISTDNAQNTVDLQMNSLTAADTATYFCAREFSASAYQYDLWGPGTLVTVSSASTKGPSVFPLAPSSKSTSGGTAALGCLVKDYFPEPVTVSWSSGALTSGVHTFPAVLQSSGLYSLSSVVTVPSSSLGTQTYICNVNHKPSNTKVDKKVEPKSCDKTHTCPPCPAPELLGGPSVFLFPPKPKDTLMISRTPEVTCVVVDVSHEDPEVKFNWYVDGVEVHNAKTKPREEQYGSTYRVVSVLTVLHQDWLNGKEYKCKVSNKALPAPIEKTISKAKGQPREPQVYTLPPSRDELTKNQVSLSCAVKGFYPSDIAVEWESNGQPENNYKTTPPVLDSDGSFFLVSKLTVDKSRWQQGNVFSCSVMHEALHNRFTQKSLSLSPGK not shown | 2.88 | 3.23 | 1.91 | 1.28 | 19 | – | – | –
57B9/msnCD3 (bispecific antibody, human IgG1, kappa, N297G, also called 57B9/mscCD3; CD79b/CD3 bispecific antibody) light: ALVMTQTPSSVSADVGGTVSINCQASEDIESYLAWYQQKPGQPPKLLIYFTSNLASGVPSRFKGSGSGTEYTLTISGVQPDDAATYYCQQGYRNSDVHNPFGGGTEVVVKRTVAAPSVFIFPPSDEQLKSGTASVVCLLNNFYPREAKVQWKVDNALQSGNSQESVTEQDSKDSTYSLSSTLTLSKADYEKHKVYACEVTHQGLSSPVTKSFNRGEC heavy: QSVRETGGGLVQPGGSLTLSCEASEFTINIDYWISWVRQAPGKGLEWIGIIDPGDGTTYFAIWVNGRFTITRNTNLNTVDLKMTSLTEADTATYFCAREVSASAYQYDLWGPGTLVTVSSASTKGPSVFPLAPSSKSTSGGTAALGCLVKDYFPEPVTVSWSSGALTSGVHTFPAVLQSSGLYSLSSVVTVPSSSLGTQTYICNVNHKPSNTKVDKKVEPKSCDKTHTCPPCPAPELLGGPSVFLFPPKPKDTLMISRTPEVTCVVVDVSHEDPEVKFNWYVDGVEVHNAKTKPREEQYGSTYRVVSVLTVLHQDWLNGKEYKCKVSNKALPAPIEKTISKAKGQPREPQVYTLPPSRDELTKNQVSLSCAVKGFYPSDIAVEWESNGQPENNYKTTPPVLDSDGSFFLVSKLTVDKSRWQQGNVFSCSVMHEALHNRFTQKSLSLSPGK not shown | 15.1 | 11.9 | ~24 | 4.59 | 9510 | – | – | –
Mosunetuzumab (bispecific antibody) chain 1: not shown chain 2: DIQMTQSPSSLSASVGDRVTITCRASSSVSYMHWYQQKPGKAPKPLIYAPSNLASGVPSRFSGSGSGTDFTLTISSLQPEDFATYYCQQWSFNPPTFGQGTKVEIKRTVAAPSVFIFPPSDEQLKSGTASVVCLLNNFYPREAKVQWKVDNALQSGNSQESVTEQDSKDSTYSLSSTLTLSKADYEKHKVYACEVTHQGLSSPVTKSFNRGEC chain 3: EVQLVQSGAEVKKPGASVKVSCKASGYTFTNYYIHWVRQAPGQGLEWIGWIYPGDGNTKYNEKFKGRATLTADTSTSTAYLELSSLRSEDTAVYYCARDSYSNYYFDYWGQGTLVTVSSASTKGPSVFPLAPSSKSTSGGTAALGCLVKDYFPEPVTVSWNSGALTSGVHTFPAVLQSSGLYSLSSVVTVPSSSLGTQTYICNVNHKPSNTKVDKKVEPKSCDKTHTCPPCPAPELLGGPSVFLFPPKPKDTLMISRTPEVTCVVVDVSHEDPEVKFNWYVDGVEVHNAKTKPREEQYGSTYRVVSVLTVLHQDWLNGKEYKCKVSNKALPAPIEKTISKAKGQPREPQVYTLPPSREEMTKNQVSLSCAVKGFYPSDIAVEWESNGQPENNYKTTPPVLDSDGSFFLVSKLTVDKSRWQQGNVFSCSVMHEALHNHYTQKSLSLSPGK chain 4: not shown | – | – | 2.06 | – | – | 50.4 | 30.6 | 13.7

Source: patent publication US20250304679A1 (LTZ THERAPEUTICS, published 2025)
